Laboratory results reported in the Human Domainome abundance scans (Beltran et al. 2025).
± gives the uncertainty stated by the source.

B1: Zinc finger homeobox protein 4, residues 2183 to 2238; numbered along this chain, Q86UP3 (parent)
chain: SSRTRFTDYQLRVLQDFFDTNAYPKDDEIEQLSTVLNLPTRVIVVWFQNARQKARK

Variants of: B1
Assay: abundance fitness (aPCA) (normalised: wild type 0, dead -1); higher = more abundant; growth selection in yeast, the domain comes from the species named
Conditions: Homo sapiens

Variant	abundance fitness
SSRTRFVDYQLRVLQDFFDTNAYPKDDEIEQLSTVLNLPTRVIVVWFQNARQKARK [T7V]	-0.299 ± 0.11
SSRTRFDDYQLRVLQDFFDTNAYPKDDEIEQLSTVLNLPTRVIVVWFQNARQKARK [T7D]	-0.081 ± 0.18
SSRTRFYDYQLRVLQDFFDTNAYPKDDEIEQLSTVLNLPTRVIVVWFQNARQKARK [T7Y]	-0.574 ± 0.32
SSRTRFHDYQLRVLQDFFDTNAYPKDDEIEQLSTVLNLPTRVIVVWFQNARQKARK [T7H]	-0.597 ± 0.41
SSRTRFSDYQLRVLQDFFDTNAYPKDDEIEQLSTVLNLPTRVIVVWFQNARQKARK [T7S]	-0.014 ± 0.11
SSRTRFQDYQLRVLQDFFDTNAYPKDDEIEQLSTVLNLPTRVIVVWFQNARQKARK [T7Q]	-0.27 ± 0.17
SSRTRFPDYQLRVLQDFFDTNAYPKDDEIEQLSTVLNLPTRVIVVWFQNARQKARK [T7P]	-0.368 ± 0.16
SSRTRFCDYQLRVLQDFFDTNAYPKDDEIEQLSTVLNLPTRVIVVWFQNARQKARK [T7C]	-0.586 ± 0.17
SSRTRFLDYQLRVLQDFFDTNAYPKDDEIEQLSTVLNLPTRVIVVWFQNARQKARK [T7L]	-0.384 ± 0.12
SSRTRFMDYQLRVLQDFFDTNAYPKDDEIEQLSTVLNLPTRVIVVWFQNARQKARK [T7M]	-0.278 ± 0.14
SSRTRFRDYQLRVLQDFFDTNAYPKDDEIEQLSTVLNLPTRVIVVWFQNARQKARK [T7R]	-0.67 ± 0.093
SSRTRFGDYQLRVLQDFFDTNAYPKDDEIEQLSTVLNLPTRVIVVWFQNARQKARK [T7G]	-0.333 ± 0.086
SSRTRFKDYQLRVLQDFFDTNAYPKDDEIEQLSTVLNLPTRVIVVWFQNARQKARK [T7K]	-0.455 ± 0.18
SSRTRFWDYQLRVLQDFFDTNAYPKDDEIEQLSTVLNLPTRVIVVWFQNARQKARK [T7W]	-0.719 ± 0.15
SSRTRFADYQLRVLQDFFDTNAYPKDDEIEQLSTVLNLPTRVIVVWFQNARQKARK [T7A]	-0.14 ± 0.11
SSRTRFTDEQLRVLQDFFDTNAYPKDDEIEQLSTVLNLPTRVIVVWFQNARQKARK [Y9E]	0.081 ± 0.098
SSRTRFTDAQLRVLQDFFDTNAYPKDDEIEQLSTVLNLPTRVIVVWFQNARQKARK [Y9A]	0.167 ± 0.086
SSRTRFTDNQLRVLQDFFDTNAYPKDDEIEQLSTVLNLPTRVIVVWFQNARQKARK [Y9N]	0.057 ± 0.13
SSRTRFTDMQLRVLQDFFDTNAYPKDDEIEQLSTVLNLPTRVIVVWFQNARQKARK [Y9M]	0.025 ± 0.11
SSRTRFTDRQLRVLQDFFDTNAYPKDDEIEQLSTVLNLPTRVIVVWFQNARQKARK [Y9R]	0.11 ± 0.076
SSRTRFTDDQLRVLQDFFDTNAYPKDDEIEQLSTVLNLPTRVIVVWFQNARQKARK [Y9D]	-0.128 ± 0.13
SSRTRFTDTQLRVLQDFFDTNAYPKDDEIEQLSTVLNLPTRVIVVWFQNARQKARK [Y9T]	0.167 ± 0.1
SSRTRFTDIQLRVLQDFFDTNAYPKDDEIEQLSTVLNLPTRVIVVWFQNARQKARK [Y9I]	-0.351 ± 0.3
SSRTRFTDCQLRVLQDFFDTNAYPKDDEIEQLSTVLNLPTRVIVVWFQNARQKARK [Y9C]	-0.102 ± 0.13

Variant	abundance fitness
SSRTRFTDWQLRVLQDFFDTNAYPKDDEIEQLSTVLNLPTRVIVVWFQNARQKARK [Y9W]	0.02 ± 0.11
SSRTRFTDQQLRVLQDFFDTNAYPKDDEIEQLSTVLNLPTRVIVVWFQNARQKARK [Y9Q]	0.283 ± 0.1
SSRTRFTDKQLRVLQDFFDTNAYPKDDEIEQLSTVLNLPTRVIVVWFQNARQKARK [Y9K]	0.318 ± 0.12
SSRTRFTDGQLRVLQDFFDTNAYPKDDEIEQLSTVLNLPTRVIVVWFQNARQKARK [Y9G]	0.062 ± 0.072
SSRTRFTDVQLRVLQDFFDTNAYPKDDEIEQLSTVLNLPTRVIVVWFQNARQKARK [Y9V]	-0.038 ± 0.081
SSRTRFTDSQLRVLQDFFDTNAYPKDDEIEQLSTVLNLPTRVIVVWFQNARQKARK [Y9S]	0.14 ± 0.099
SSRTRFTDFQLRVLQDFFDTNAYPKDDEIEQLSTVLNLPTRVIVVWFQNARQKARK [Y9F]	0.261 ± 0.19
SSRTRFTDYCLRVLQDFFDTNAYPKDDEIEQLSTVLNLPTRVIVVWFQNARQKARK [Q10C]	-0.395 ± 0.082
SSRTRFTDYDLRVLQDFFDTNAYPKDDEIEQLSTVLNLPTRVIVVWFQNARQKARK [Q10D]	-0.454 ± 0.087
SSRTRFTDYALRVLQDFFDTNAYPKDDEIEQLSTVLNLPTRVIVVWFQNARQKARK [Q10A]	-0.459 ± 0.073
SSRTRFTDYELRVLQDFFDTNAYPKDDEIEQLSTVLNLPTRVIVVWFQNARQKARK [Q10E]	-0.297 ± 0.11
SSRTRFTDYFLRVLQDFFDTNAYPKDDEIEQLSTVLNLPTRVIVVWFQNARQKARK [Q10F]	-0.928 ± 0.12
SSRTRFTDYGLRVLQDFFDTNAYPKDDEIEQLSTVLNLPTRVIVVWFQNARQKARK [Q10G]	-0.69 ± 0.084
SSRRRFTDYQLRVLQDFFDTNAYPKDDEIEQLSTVLNLPTRVIVVWFQNARQKARK [T4R]	-0.533 ± 0.08
SSRWRFTDYQLRVLQDFFDTNAYPKDDEIEQLSTVLNLPTRVIVVWFQNARQKARK [T4W]	-0.433 ± 0.12
SSRYRFTDYQLRVLQDFFDTNAYPKDDEIEQLSTVLNLPTRVIVVWFQNARQKARK [T4Y]	0.323 ± 0.16
SSRSRFTDYQLRVLQDFFDTNAYPKDDEIEQLSTVLNLPTRVIVVWFQNARQKARK [T4S]	0.019 ± 0.087
SSRVRFTDYQLRVLQDFFDTNAYPKDDEIEQLSTVLNLPTRVIVVWFQNARQKARK [T4V]	-0.602 ± 0.11
SSRTRFTFYQLRVLQDFFDTNAYPKDDEIEQLSTVLNLPTRVIVVWFQNARQKARK [D8F]	-0.361 ± 0.19
SSRTRFTSYQLRVLQDFFDTNAYPKDDEIEQLSTVLNLPTRVIVVWFQNARQKARK [D8S]	-0.315 ± 0.1
SSRTRFTHYQLRVLQDFFDTNAYPKDDEIEQLSTVLNLPTRVIVVWFQNARQKARK [D8H]	0.124 ± 0.17
SSRTRFTCYQLRVLQDFFDTNAYPKDDEIEQLSTVLNLPTRVIVVWFQNARQKARK [D8C]	-0.136 ± 0.14
SSRTRFTQYQLRVLQDFFDTNAYPKDDEIEQLSTVLNLPTRVIVVWFQNARQKARK [D8Q]	0.103 ± 0.12
